In the supplement of paper PMC7877785:
± gives the uncertainty stated by the source.

Assay: self-splicing fitness, log relative to wild type (ln ratio); higher = more splicing; Tetrahymena group I intron in knt gene, E. coli kanamycin selection, DiMSum; sequences stand for … in CUCUCU…GGAGGGAAAAGUUAUCAGGCAUGCACCUGGUAGCUAGUCUUUAAACCAAUAGAUUGCAUCGGUUUAAAAGGCAAGACCGUCAAAUUGCGGGAAAGGGGUCAACAGCCGUUCAGUACCAAGUCUCAGGGGAAACUUUGAGAUGGCCUUGCAAAGGGUAUGGUAAUAAGCUGACGGACAUGGUCCUAACCACGCAGCCAAGUCCUAAGUCAACAGAUCUUCUGUUGAUAUGGAUGCAGUUCACAGACUAAAUGUCGGUCGGGGAAGAUGUAUUCUUCUCAUAAGAUAUAGUCGGACCUCUCCUUAAUGGGAGCUAGCGGAUGAAGUGAUGCAACACUGGAGCCGCUGGGAACUAAUUUGUAUGCGAAAGUAUAUUGAUUAGUUUUGGAGUACUCGUGGUCG
Summary of the method: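 The eight P1ex-region nucleotides of an intron in the knt kanamycin-resistance gene on pET-22b(+) were all randomised and the library put into E. coli BL21(DE3). Six replicate transformations were grown overnight at 37°C or 30°C on LB agar with or without 25 μg/mL kanamycin, together with 100 μg/mL carbenicillin, 50 μM IPTG and 0.2% rhamnose. Colonies were pooled and amplicon-sequenced on an Illumina HiSeq 2500. Fitness from DiMSum is the error-weighted combination of wild-type-normalised replicate fold changes, kanamycin over none.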

Sequence: AGUCAGCAAUAUUACGUCCC
- self-splicing fitness (ln) (30 °C): -1.52 ± 0.22
- self-splicing fitness (ln) (37 °C): 0.485 ± 0.27

Sequence: AGUCAGCAAUAUUACGUCUA
- self-splicing fitness (ln) (30 °C): -0.83 ± 0.072
- self-splicing fitness (ln) (37 °C): -0.792 ± 0.071

Sequence: AGUCAGCAAUAUUACGUCUU
- self-splicing fitness (ln) (30 °C): -0.994 ± 0.095
- self-splicing fitness (ln) (37 °C): -0.306 ± 0.11

Sequence: AGUCAGCAAUAUUACGUGCG
- self-splicing fitness (ln) (30 °C): -0.277 ± 0.078
- self-splicing fitness (ln) (37 °C): -0.317 ± 0.088

Sequence: AGUCAGCAAUAUUACGUGGC
- self-splicing fitness (ln) (30 °C): -2.31 ± 0.16
- self-splicing fitness (ln) (37 °C): -2.21 ± 0.15

Sequence: AGUCAGCAAUAUUACGUGUC
- self-splicing fitness (ln) (30 °C): -2.18 ± 0.13
- self-splicing fitness (ln) (37 °C): -2.11 ± 0.19

Sequence: AGUCAGCAAUAUUACGUUAG
- self-splicing fitness (ln) (30 °C): -3.63 ± 0.17
- self-splicing fitness (ln) (37 °C): -1.43 ± 0.12

Sequence: AGUCAGCAAUAUUACGUUCG
- self-splicing fitness (ln) (30 °C): -1.9 ± 0.13
- self-splicing fitness (ln) (37 °C): -1.46 ± 0.15

Sequence: AGUCAGCAAUAUUACGUUUA
- self-splicing fitness (ln) (30 °C): -2.23 ± 0.11
- self-splicing fitness (ln) (37 °C): -1.36 ± 0.099

Sequence: AGUGAGCAAUAUUACGAAAA
- self-splicing fitness (ln) (30 °C): -3.16 ± 0.16
- self-splicing fitness (ln) (37 °C): -2.23 ± 0.23

Sequence: AGUGAGCAAUAUUACGAGUG
- self-splicing fitness (ln) (30 °C): -3.75 ± 0.47
- self-splicing fitness (ln) (37 °C): -1.02 ± 0.24

Sequence: AGUGAGCAAUAUUACGAUAU
- self-splicing fitness (ln) (30 °C): -3.14 ± 0.25
- self-splicing fitness (ln) (37 °C): -2.22 ± 0.28

Sequence: AGUGAGCAAUAUUACGAUGU
- self-splicing fitness (ln) (30 °C): -3.64 ± 0.3
- self-splicing fitness (ln) (37 °C): -2.51 ± 0.25

Sequence: AGUGAGCAAUAUUACGCACA
- self-splicing fitness (ln) (30 °C): -1.35 ± 0.1
- self-splicing fitness (ln) (37 °C): -0.91 ± 0.13

Sequence: AGUGAGCAAUAUUACGCCUG
- self-splicing fitness (ln) (30 °C): -3.85 ± 0.29
- self-splicing fitness (ln) (37 °C): -2.38 ± 0.29

Sequence: AGUGAGCAAUAUUACGCUUU
- self-splicing fitness (ln) (30 °C): -4.07 ± 0.32
- self-splicing fitness (ln) (37 °C): -3.04 ± 0.4

Sequence: AGUGAGCAAUAUUACGGCGG
- self-splicing fitness (ln) (30 °C): -1.83 ± 0.31
- self-splicing fitness (ln) (37 °C): -2.29 ± 0.26

Sequence: AGUGAGCAAUAUUACGGCUU
- self-splicing fitness (ln) (30 °C): -2.43 ± 0.17
- self-splicing fitness (ln) (37 °C): -1.72 ± 0.25

Sequence: AGUGAGCAAUAUUACGGGAG
- self-splicing fitness (ln) (30 °C): -5.04 ± 0.41
- self-splicing fitness (ln) (37 °C): -2.38 ± 0.14

Sequence: AGUGAGCAAUAUUACGGGCA
- self-splicing fitness (ln) (30 °C): -1.22 ± 0.3
- self-splicing fitness (ln) (37 °C): -1.73 ± 0.15

Sequence: AGUGAGCAAUAUUACGUACC
- self-splicing fitness (ln) (30 °C): -0.317 ± 0.2
- self-splicing fitness (ln) (37 °C): -0.261 ± 0.28

Sequence: AGUGAGCAAUAUUACGUACG
- self-splicing fitness (ln) (30 °C): -2.22 ± 0.16
- self-splicing fitness (ln) (37 °C): -1.3 ± 0.13

Sequence: AGUGAGCAAUAUUACGUGAU
- self-splicing fitness (ln) (30 °C): -2.87 ± 0.26
- self-splicing fitness (ln) (37 °C): -2.74 ± 0.34

Sequence: AGUGAGCAAUAUUACGUGCG
- self-splicing fitness (ln) (30 °C): -3.31 ± 0.33
- self-splicing fitness (ln) (37 °C): -2.08 ± 0.37

Sequence: AGUGAGCAAUAUUACGUGUG
- self-splicing fitness (ln) (30 °C): -2.69 ± 0.21

Sequence: AGUGAGCAAUAUUACGUUGA
- self-splicing fitness (ln) (30 °C): -2.51 ± 0.13
- self-splicing fitness (ln) (37 °C): -2.75 ± 0.2

Sequence: AGUGAGCAAUAUUACGUUUA
- self-splicing fitness (ln) (30 °C): -3.37 ± 0.45
- self-splicing fitness (ln) (37 °C): -2.04 ± 0.22

Sequence: AGUUAGCAAUAUUACGAAAU
- self-splicing fitness (ln) (30 °C): -2.58 ± 0.13
- self-splicing fitness (ln) (37 °C): -1.62 ± 0.13

Sequence: AGUUAGCAAUAUUACGACAU
- self-splicing fitness (ln) (30 °C): 0.112 ± 0.013
- self-splicing fitness (ln) (37 °C): 0.071 ± 0.033

Sequence: AGUUAGCAAUAUUACGACCC
- self-splicing fitness (ln) (30 °C): -0.338 ± 0.19
- self-splicing fitness (ln) (37 °C): -0.0159 ± 0.49

Sequence: AGUUAGCAAUAUUACGAGAC
- self-splicing fitness (ln) (30 °C): -3.11 ± 0.26
- self-splicing fitness (ln) (37 °C): -2.02 ± 0.27

Sequence: AGUUAGCAAUAUUACGAUGC
- self-splicing fitness (ln) (30 °C): -1.75 ± 0.2
- self-splicing fitness (ln) (37 °C): -0.0326 ± 0.17

Sequence: AGUUAGCAAUAUUACGCAAU
- self-splicing fitness (ln) (30 °C): -1.6 ± 0.18
- self-splicing fitness (ln) (37 °C): -2.52 ± 0.29

Sequence: AGUUAGCAAUAUUACGCACC
- self-splicing fitness (ln) (30 °C): -1.35 ± 0.15
- self-splicing fitness (ln) (37 °C): -0.000166 ± 0.19

Sequence: AGUUAGCAAUAUUACGCCGA
- self-splicing fitness (ln) (30 °C): -2.78 ± 0.46
- self-splicing fitness (ln) (37 °C): -1.71 ± 0.39

Sequence: AGUUAGCAAUAUUACGCCGC
- self-splicing fitness (ln) (30 °C): -2.09 ± 0.38

Sequence: AGUUAGCAAUAUUACGCCGU
- self-splicing fitness (ln) (30 °C): -1.15 ± 0.099
- self-splicing fitness (ln) (37 °C): -0.939 ± 0.14

Sequence: AGUUAGCAAUAUUACGCUGU
- self-splicing fitness (ln) (30 °C): -2.3 ± 0.14
- self-splicing fitness (ln) (37 °C): -2.01 ± 0.21
